From the supplement of paper PMC10065799, “High-throughput profiling of sequence recognition by tyrosine kinases and SH2 domains using bacterial peptide display” (eLife, 2023)

What was measured:
AncSZ = experiment: phosphorylation enrichment, bacterial display (enrichment ratio); higher = better substrate or ligand; peptides without Tyr show the background
EPHB1 = EPHB1 (UniProt P54762); experiment: as above
EPHB2 = EPHB2 (UniProt P29323); experiment: as above
FGFR1 = FGFR1 (UniProt P11362); experiment: as above
FGFR3 = FGFR3 (UniProt P22607); experiment: as above
Fer (mouse) = experiment: as above
Fes = Fes (UniProt P07332); experiment: as above
Fyn = Fyn (UniProt P06241); experiment: as above
Hck = Hck (UniProt P08631); experiment: as above
Jak2 = Jak2 (UniProt O60674); experiment: as above
MERTK = MERTK (UniProt Q12866); experiment: as above
c-Abl (mouse) = experiment: as above
c-Src = experiment: as above
Grb2 SH2 = Grb2 SH2 (UniProt P62993); experiment: SH2 binding enrichment of the phosphorylated peptide, bacterial display (enrichment ratio); higher = better substrate or ligand; peptides without Tyr show the background
SHP2-C SH2 = experiment: as above
c-Src SH2 = experiment: as above
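For SH2 binding enrichment of the phosphorylated peptide, bacterial display in this document: peptide library displayed on the E. coli surface as eCPX fusions, selected cells deep-sequenced, score is each peptide's frequency after selection divided by its frequency in the input.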
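For phosphorylation enrichment, bacterial display in this document: 11-residue human phosphosite peptides and single-mutation variants displayed on the E. coli surface, counted by deep sequencing, each peptide's frequency after selection divided by its frequency in the unselected input library; frequency after pTyr selection over input frequency; kinase dosed for 20-30% of maximal phosphorylation in three min.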

EPHB2, sequence (P29323 whole entry, looked up): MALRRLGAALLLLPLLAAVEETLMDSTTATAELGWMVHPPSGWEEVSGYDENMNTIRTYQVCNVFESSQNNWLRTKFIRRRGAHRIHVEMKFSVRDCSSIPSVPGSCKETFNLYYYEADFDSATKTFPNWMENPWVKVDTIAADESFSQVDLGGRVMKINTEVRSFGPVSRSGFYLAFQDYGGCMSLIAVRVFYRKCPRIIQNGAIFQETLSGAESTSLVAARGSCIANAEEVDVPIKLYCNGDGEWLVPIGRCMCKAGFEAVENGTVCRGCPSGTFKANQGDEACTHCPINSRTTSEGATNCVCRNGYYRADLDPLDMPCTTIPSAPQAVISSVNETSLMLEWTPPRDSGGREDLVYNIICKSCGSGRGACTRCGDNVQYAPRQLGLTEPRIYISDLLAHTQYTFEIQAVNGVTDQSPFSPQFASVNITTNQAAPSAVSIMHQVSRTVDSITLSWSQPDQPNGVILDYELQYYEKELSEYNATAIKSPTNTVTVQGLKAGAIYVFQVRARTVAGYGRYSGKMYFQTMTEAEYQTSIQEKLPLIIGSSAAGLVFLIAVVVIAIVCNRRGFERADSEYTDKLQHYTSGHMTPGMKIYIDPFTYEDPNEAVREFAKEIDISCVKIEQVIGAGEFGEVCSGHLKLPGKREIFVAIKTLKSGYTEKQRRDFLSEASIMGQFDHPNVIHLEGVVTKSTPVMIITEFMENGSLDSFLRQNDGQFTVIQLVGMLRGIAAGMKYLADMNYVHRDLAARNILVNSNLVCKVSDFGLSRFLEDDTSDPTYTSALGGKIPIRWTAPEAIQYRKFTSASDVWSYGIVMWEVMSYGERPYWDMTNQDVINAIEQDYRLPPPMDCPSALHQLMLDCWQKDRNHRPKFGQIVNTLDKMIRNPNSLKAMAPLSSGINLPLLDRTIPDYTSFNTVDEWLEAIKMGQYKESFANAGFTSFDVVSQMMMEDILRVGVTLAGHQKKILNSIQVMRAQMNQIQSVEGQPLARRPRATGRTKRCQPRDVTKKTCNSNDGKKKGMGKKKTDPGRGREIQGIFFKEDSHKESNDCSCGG
Jak2, sequence (O60674 whole entry, looked up): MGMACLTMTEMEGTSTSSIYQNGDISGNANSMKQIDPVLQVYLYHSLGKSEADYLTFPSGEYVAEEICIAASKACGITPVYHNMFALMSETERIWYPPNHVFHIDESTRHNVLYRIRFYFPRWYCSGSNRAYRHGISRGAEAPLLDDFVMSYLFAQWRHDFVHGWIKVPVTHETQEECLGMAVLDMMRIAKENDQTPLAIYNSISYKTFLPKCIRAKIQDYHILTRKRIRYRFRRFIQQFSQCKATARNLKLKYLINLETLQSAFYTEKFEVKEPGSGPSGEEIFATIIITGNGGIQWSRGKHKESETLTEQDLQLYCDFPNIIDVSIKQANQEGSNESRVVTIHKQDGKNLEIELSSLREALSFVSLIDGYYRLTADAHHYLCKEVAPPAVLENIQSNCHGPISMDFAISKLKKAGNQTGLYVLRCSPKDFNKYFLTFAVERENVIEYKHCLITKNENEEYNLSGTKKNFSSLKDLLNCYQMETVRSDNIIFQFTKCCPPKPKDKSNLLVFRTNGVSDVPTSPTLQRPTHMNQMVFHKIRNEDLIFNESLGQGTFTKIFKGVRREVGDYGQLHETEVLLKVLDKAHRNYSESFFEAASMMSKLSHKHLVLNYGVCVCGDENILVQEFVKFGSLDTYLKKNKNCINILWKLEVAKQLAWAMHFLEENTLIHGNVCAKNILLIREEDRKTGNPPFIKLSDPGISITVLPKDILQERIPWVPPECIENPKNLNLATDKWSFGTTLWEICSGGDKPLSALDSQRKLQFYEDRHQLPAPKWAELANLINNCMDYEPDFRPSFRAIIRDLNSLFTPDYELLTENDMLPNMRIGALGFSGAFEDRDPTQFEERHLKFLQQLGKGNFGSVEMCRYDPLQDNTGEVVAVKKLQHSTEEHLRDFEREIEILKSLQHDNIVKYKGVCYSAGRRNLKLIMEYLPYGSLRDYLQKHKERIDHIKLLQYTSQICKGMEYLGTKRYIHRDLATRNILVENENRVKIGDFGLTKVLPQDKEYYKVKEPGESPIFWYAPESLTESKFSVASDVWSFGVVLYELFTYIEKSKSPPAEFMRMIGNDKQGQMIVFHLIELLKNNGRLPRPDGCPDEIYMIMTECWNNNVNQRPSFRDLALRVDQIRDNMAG
Fyn, sequence (P06241 whole entry, looked up): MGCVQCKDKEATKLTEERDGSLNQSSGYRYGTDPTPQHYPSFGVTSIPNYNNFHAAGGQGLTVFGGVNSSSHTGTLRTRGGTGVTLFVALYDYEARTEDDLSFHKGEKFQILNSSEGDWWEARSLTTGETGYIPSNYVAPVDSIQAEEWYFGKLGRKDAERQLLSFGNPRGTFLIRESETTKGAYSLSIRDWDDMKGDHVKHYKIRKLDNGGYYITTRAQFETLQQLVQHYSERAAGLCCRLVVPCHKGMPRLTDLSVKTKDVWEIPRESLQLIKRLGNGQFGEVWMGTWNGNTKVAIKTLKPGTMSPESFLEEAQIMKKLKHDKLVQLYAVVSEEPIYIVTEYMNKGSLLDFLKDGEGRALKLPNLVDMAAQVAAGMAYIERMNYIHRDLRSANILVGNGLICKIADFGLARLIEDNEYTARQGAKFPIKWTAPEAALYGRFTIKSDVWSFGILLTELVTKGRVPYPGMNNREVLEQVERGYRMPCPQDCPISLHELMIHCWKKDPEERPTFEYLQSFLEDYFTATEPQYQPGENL
FGFR1, sequence (P11362 whole entry, looked up): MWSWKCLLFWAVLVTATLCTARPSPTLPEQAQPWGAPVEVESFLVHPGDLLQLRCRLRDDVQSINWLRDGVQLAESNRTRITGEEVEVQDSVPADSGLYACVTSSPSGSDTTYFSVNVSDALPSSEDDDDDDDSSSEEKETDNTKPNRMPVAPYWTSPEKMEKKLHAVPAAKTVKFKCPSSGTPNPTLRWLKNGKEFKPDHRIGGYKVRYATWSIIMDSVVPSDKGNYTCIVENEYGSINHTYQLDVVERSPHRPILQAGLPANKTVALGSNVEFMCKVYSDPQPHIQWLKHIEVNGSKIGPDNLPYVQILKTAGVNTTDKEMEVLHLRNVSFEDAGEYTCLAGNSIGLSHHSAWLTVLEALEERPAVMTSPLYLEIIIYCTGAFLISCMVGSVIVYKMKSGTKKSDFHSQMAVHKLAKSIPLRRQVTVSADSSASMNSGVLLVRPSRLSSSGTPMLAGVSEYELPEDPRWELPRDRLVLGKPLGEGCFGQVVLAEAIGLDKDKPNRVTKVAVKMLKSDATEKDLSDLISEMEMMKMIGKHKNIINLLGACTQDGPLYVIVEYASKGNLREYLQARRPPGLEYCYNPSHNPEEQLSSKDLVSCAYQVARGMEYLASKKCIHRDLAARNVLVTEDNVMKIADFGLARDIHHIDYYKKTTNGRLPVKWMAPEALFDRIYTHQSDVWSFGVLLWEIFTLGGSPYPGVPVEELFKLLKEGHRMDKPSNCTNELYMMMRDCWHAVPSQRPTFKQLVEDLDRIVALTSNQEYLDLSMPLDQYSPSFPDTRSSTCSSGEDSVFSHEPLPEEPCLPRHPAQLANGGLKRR
EPHB1, sequence (P54762 whole entry, looked up): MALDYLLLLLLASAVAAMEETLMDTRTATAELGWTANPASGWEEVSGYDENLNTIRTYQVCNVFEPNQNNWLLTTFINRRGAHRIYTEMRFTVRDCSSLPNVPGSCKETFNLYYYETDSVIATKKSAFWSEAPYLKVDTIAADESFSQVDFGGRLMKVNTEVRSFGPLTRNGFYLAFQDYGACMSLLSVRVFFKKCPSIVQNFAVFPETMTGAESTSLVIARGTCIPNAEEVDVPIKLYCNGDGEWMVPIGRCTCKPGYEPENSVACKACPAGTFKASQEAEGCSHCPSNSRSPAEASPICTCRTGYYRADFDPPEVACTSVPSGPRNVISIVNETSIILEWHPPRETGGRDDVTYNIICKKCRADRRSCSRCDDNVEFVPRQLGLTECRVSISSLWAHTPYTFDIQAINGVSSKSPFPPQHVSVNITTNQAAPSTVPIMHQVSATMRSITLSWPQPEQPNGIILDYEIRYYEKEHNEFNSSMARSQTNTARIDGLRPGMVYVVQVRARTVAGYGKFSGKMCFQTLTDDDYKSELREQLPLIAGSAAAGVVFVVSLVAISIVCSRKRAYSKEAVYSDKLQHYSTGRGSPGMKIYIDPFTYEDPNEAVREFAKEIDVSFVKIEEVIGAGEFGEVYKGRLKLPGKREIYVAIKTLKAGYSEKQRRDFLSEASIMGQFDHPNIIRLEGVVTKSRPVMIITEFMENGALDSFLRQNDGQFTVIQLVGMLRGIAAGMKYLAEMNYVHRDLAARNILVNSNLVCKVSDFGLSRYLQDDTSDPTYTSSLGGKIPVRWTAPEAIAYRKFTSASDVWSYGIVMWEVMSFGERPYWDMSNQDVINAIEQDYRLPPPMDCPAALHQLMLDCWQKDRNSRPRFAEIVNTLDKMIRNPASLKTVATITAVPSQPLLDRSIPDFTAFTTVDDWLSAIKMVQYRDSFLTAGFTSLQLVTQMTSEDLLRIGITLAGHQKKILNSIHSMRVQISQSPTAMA
Hck, sequence (P08631 whole entry, looked up): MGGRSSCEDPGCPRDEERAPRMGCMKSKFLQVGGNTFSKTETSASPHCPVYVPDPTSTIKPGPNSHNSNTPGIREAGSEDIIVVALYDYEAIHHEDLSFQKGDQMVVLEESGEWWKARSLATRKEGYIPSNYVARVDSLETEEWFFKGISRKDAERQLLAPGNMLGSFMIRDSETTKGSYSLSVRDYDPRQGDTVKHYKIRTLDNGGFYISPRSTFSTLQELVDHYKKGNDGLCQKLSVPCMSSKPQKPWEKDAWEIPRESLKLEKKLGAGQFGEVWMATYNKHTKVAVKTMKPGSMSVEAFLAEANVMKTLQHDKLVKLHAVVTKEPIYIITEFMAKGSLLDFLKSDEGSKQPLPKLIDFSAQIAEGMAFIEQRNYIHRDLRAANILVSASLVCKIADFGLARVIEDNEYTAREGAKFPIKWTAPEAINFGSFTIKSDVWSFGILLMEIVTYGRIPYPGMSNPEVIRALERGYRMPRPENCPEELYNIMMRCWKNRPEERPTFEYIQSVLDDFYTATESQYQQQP

Sequence | SH2 binding enrichment (Grb2 SH2) | SH2 binding enrichment (SHP2-C SH2) | SH2 binding enrichment (c-Src SH2) | phosphorylation enrichment (AncSZ) | phosphorylation enrichment (EPHB1) | phosphorylation enrichment (EPHB2) | phosphorylation enrichment (FGFR1) | phosphorylation enrichment (FGFR3) | phosphorylation enrichment (Fer (mouse)) | phosphorylation enrichment (Fes) | phosphorylation enrichment (Fyn) | phosphorylation enrichment (Hck) | phosphorylation enrichment (Jak2) | phosphorylation enrichment (MERTK) | phosphorylation enrichment (c-Abl (mouse)) | phosphorylation enrichment (c-Src)
EPGSLYGCGGG [ATM_Y2019_D2016G] | 1.24 | 0.695 | 0.589 | 0.77 | 0.548 | 0.527 | 0.52 | 0.567 | 0.818 | 0.803 | 0.851 | 2.19 | 0.707 | 0.634 | 0.584 | 0.918
EQLRAYLEGTC [HLA-C_Y183] | 0.844 | 0.707 | 0.561 | 1.02 | 0.467 | 0.591 | 0.843 | 0.692 | 0.558 | 1.08 | 0.453 | 0.55 | 0.866 | 0.403 | 0.53 | 0.423
ERDFTYDELLN [EIF2S2_Y176_E177D_YF] | 1.07 | 0.789 | 1.2 | 1.53 | 0.616 | 0.598 | 0.58 | 0.815 | 0.638 | 1.33 | 0.667 | 0.994 | 1.46 | 0.537 | 0.894 | 0.796
EREFKYGAHKF [OAT_Y50_N54K_YF] | 0.846 | 0.585 | 0.464 | 0.599 | 0.339 | 0.412 | 0.424 | 0.438 | 0.329 | 0.738 | 0.443 | 0.427 | 0.571 | 0.392 | 0.496 | 0.423
ETEMLYGSAPR [PRC1_Y464] | 0.784 | 0.686 | 0.437 | 0.889 | 0.433 | 0.513 | 0.474 | 0.557 | 6.32 | 0.805 | 6.44 | 6.51 | 0.556 | 0.414 | 0.716 | 5.25
ETGNLYIAKVE [CNTN4_Y180] | 0.705 | 0.533 | 0.276 | 0.896 | 0.522 | 0.52 | 0.405 | 0.62 | 0.441 | 0.89 | 0.448 | 0.479 | 0.757 | 0.336 | 0.635 | 0.391
EVVGRYSGHNA [MLH1_Y183_V185G] | 0.768 | 0.629 | 0.448 | 0.464 | 0.434 | 0.4 | 0.405 | 0.48 | 0.397 | 0.514 | 0.414 | 0.403 | 0.397 | 0.426 | 0.368 | 0.34
EWKNNYPRLRE [OPA1_Y582] | 0.738 | 0.55 | 0.453 | 0.563 | 0.337 | 0.442 | 0.383 | 0.483 | 0.4 | 0.607 | 0.422 | 0.441 | 0.564 | 0.404 | 0.797 | 0.371
FAGRDYSLDEF [MYOF_Y1705_G1701A_YF] | 0.699 | 0.712 | 0.69 | 0.986 | 0.433 | 0.567 | 0.497 | 0.708 | 0.451 | 0.969 | 0.454 | 0.51 | 1.01 | 0.45 | 0.639 | 0.572
FASTGYGIAIQ [GRIN2B_Y762] | 0.721 | 0.647 | 0.452 | 0.655 | 0.575 | 0.456 | 0.557 | 0.55 | 0.375 | 0.92 | 0.499 | 0.484 | 0.605 | 0.408 | 0.739 | 0.408
FCVDCYKNFVA [FHL1_Y213_YF] | 1.2 | 1.02 | 0.946 | 0.862 | 0.533 | 0.751 | 0.57 | 0.617 | 0.523 | 0.957 | 0.562 | 0.529 | 0.898 | 0.487 | 0.776 | 0.461
FCVVRYCWLRR [MPZ_Y181_Y177C] | 0.581 | 0.515 | 0.539 | 0.718 | 0.45 | 0.603 | 0.552 | 0.709 | 0.404 | 0.76 | 0.606 | 0.577 | 0.586 | 0.656 | 0.773 | 0.738
FDAHIYEGCVI [PRKCD_Y64_R67C] | 0.713 | 0.758 | 0.5 | 1.39 | 0.656 | 0.639 | 0.563 | 0.831 | 10.5 | 1.44 | 2.48 | 2.53 | 1.05 | 0.635 | 0.938 | 3.34
FDEFRYRSVIK [CFTR_Y517_YF] | 0.812 | 0.527 | 0.444 | 0.768 | 0.39 | 0.472 | 0.466 | 0.484 | 0.409 | 0.804 | 0.41 | 0.498 | 0.607 | 0.463 | 0.544 | 0.46
FDGGCYEQLFV [MC4R_Y41_S36Y_YF] | 0.709 | 0.654 | 0.485 | 2.53 | 1.09 | 1.07 | 1.05 | 1.33 | 10.7 | 1.49 | 1.81 | 2.67 | 1.43 | 0.875 | 0.748 | 2.46
FDGKDYIALKE [HLA-A_Y147_N151K_YF] | 0.919 | 0.677 | 0.499 | 0.952 | 0.407 | 0.43 | 0.398 | 0.44 | 0.379 | 0.672 | 0.376 | 0.363 | 0.659 | 0.406 | 0.536 | 0.489
FDNPVCQKTTE [LDLR_Y828_Y828C] | 0.969 | 0.812 | 0.563 | 1.1 | 0.485 | 0.653 | 0.57 | 0.774 | 0.528 | 1.18 | 0.573 | 0.603 | 0.875 | 0.477 | 0.877 | 0.523
FETDFYQKGGK [INSR_Y1190_R1191Q_YF] | 0.797 | 0.62 | 0.564 | 0.633 | 0.834 | 0.355 | 0.411 | 0.503 | 0.47 | 0.88 | 0.519 | 0.472 | 0.526 | 0.421 | 0.523 | 0.427
FFCRWYRNQKS [EREG_Y144_R147Q_YF] | 0.603 | 0.657 | 0.496 | 0.775 | 0.493 | 0.489 | 0.347 | 0.478 | 0.513 | 0.6 | 0.482 | 0.596 | 0.488 | 0.497 | 0.855 | 0.57
FFDANYDGKEF [MAPRE2_Y162_YF] | 0.68 | 0.759 | 0.501 | 1.11 | 0.558 | 0.666 | 0.824 | 0.695 | 0.446 | 1.42 | 0.529 | 0.601 | 0.957 | 0.424 | 0.611 | 0.443
FGISGYVVDSV [MAP2K3_Y214_L215V] | 0.742 | 0.605 | 0.719 | 0.775 | 0.543 | 0.517 | 0.478 | 0.623 | 0.421 | 0.956 | 0.449 | 0.49 | 0.761 | 0.443 | 0.532 | 0.412
FGLQAYTEVKT [ALDH2_Y502_YF] | 0.869 | 2.52 | 7.17 | 1.03 | 0.715 | 0.609 | 0.584 | 0.783 | 0.608 | 1.34 | 0.498 | 0.657 | 1.13 | 0.452 | 0.727 | 0.414
FGPPQYNIQFS [ERBB2IP_Y977_YF] | 0.907 | 0.806 | 0.592 | 0.768 | 0.524 | 0.44 | 0.447 | 0.508 | 0.342 | 0.779 | 0.364 | 0.405 | 0.741 | 0.311 | 0.641 | 0.395

The next lines start with results.

SH2 binding enrichment (Grb2 SH2) | SH2 binding enrichment (SHP2-C SH2) | SH2 binding enrichment (c-Src SH2) | Sequence | phosphorylation enrichment (AncSZ) | phosphorylation enrichment (EPHB1) | phosphorylation enrichment (EPHB2) | phosphorylation enrichment (FGFR1) | phosphorylation enrichment (FGFR3) | phosphorylation enrichment (Fer (mouse)) | phosphorylation enrichment (Fes) | phosphorylation enrichment (Fyn) | phosphorylation enrichment (Hck) | phosphorylation enrichment (Jak2) | phosphorylation enrichment (MERTK) | phosphorylation enrichment (c-Abl (mouse)) | phosphorylation enrichment (c-Src)
0.847 | 0.739 | 0.426 | ENRKFYKDLKE [PURA_Y156_M157K_YF] | 0.532 | 0.312 | 0.552 | 0.401 | 0.493 | 0.387 | 0.699 | 0.418 | 0.473 | 0.536 | 0.589 | 0.431 | 0.422
0.713 | 0.574 | 0.592 | ENRKYYKDLKE [PURA_Y156_M157K] | 0.55 | 0.34 | 0.298 | 0.359 | 0.457 | 0.318 | 0.766 | 0.359 | 0.295 | 0.772 | 0.34 | 0.549 | 0.352
0.858 | 0.629 | 0.56 | EPTPGYEVSQR [TSC2_Y1788_G1791S] | 0.83 | 0.434 | 0.549 | 0.46 | 0.641 | 0.447 | 0.888 | 0.437 | 0.441 | 0.706 | 0.427 | 0.615 | 0.383
0.761 | 0.437 | 0.464 | EPVSDYINADI [PTPN11_Y304_N308D] | 1.5 | 0.695 | 0.689 | 0.77 | 0.908 | 0.614 | 1.33 | 0.581 | 0.637 | 1.12 | 0.492 | 9 | 0.514
1.06 | 0.955 | 0.859 | EQKKFYNAMKK [SCN5A_Y1495_YF] | 0.484 | 0.299 | 0.317 | 0.394 | 0.339 | 0.34 | 0.576 | 0.325 | 0.367 | 0.569 | 0.379 | 0.52 | 0.373
0.966 | 0.646 | 0.648 | EQKKFYNAVKK [SCN5A_Y1495_M1498V_YF] | 0.499 | 0.417 | 0.407 | 0.35 | 0.35 | 0.402 | 0.57 | 0.392 | 0.429 | 1.06 | 0.482 | 0.531 | 0.461
0.829 | 0.734 | 1.15 | ESDYTYSSSYE [SRPK2_Y427] | 2.42 | 1.3 | 1.45 | 1.12 | 1.06 | 0.68 | 1.15 | 1.11 | 0.86 | 0.852 | 0.486 | 0.725 | 1.43
1.42 | 0.8 | 0.693 | FADPFYDFEIE [ZC3H18_Y372_YF] | 1.36 | 0.785 | 0.687 | 0.57 | 0.708 | 0.752 | 1.19 | 3.26 | 0.674 | 1.12 | 0.555 | 0.817 | 3.4
0.878 | 0.548 | 0.419 | FEEDSYVTRSQ [RET_Y905_K907T_YF] | 1.18 | 0.651 | 0.829 | 0.452 | 1.08 | 0.529 | 1.33 | 0.5 | 0.531 | 1.27 | 0.47 | 0.912 | 0.617
0.956 | 0.567 | 0.536 | FEREQYADRAR [RBM4_Y355_YF] | 0.626 | 0.414 | 0.446 | 0.426 | 0.587 | 0.394 | 0.727 | 0.484 | 0.426 | 0.515 | 0.331 | 0.464 | 0.396
